This series is described as follows: soluble on expression in E. coli; label from the status in PepcDB or PDB records.
“MGSDKIHHHHHHIANVETSSRNAIGFNVLSNAAETRATPTTNTNLKNTDFDVFAFTADGTAFMGKNDTEFEHDGVKIVYKNGKWDYDNASDLRYWPTEALDFYAFNPGTVSEDMMAFYSWEATKDVQKISYTCMDEYGSGTTHANYDVMYAMAKGQTKDMNNGIVKFNFKHILSQVVFKAKTQYDNMQVDIDVIKIHNFKFAGAFTLPAAADGTGSWSSSDLAFPHAFTVVKNANITVNSNTEATDITTNTPMLNIPQELTAWKVSETATKSKLEADNAKQCYLEIACKIRQSGAYLLGSASEYKTIYVPFGDTWEQGKRHIYTLIFGGGYDDQGEAVLNPIQFDAETTGWVDADKDVNVQP”: the “soluble on expression in E. coli” value is “not soluble”.

With “MNEQAILQSAEAWVKKQLMDEYSGHDWYHIRRVTLMAKAIGEQEKVDVFVVQIAALFHDLIDDKLVDDPETAKQQLIDWMEAAGVPSQKIDHTMDIINTISFKGGHGQSLATREAMVVQDADRLDALGAIGIARTFAYSGNKGQPIYDPELPIRETMTVEEYRHGKSTAINHFYEKLFKLKDLMNTETGKQLAKERHVFMEQFIERFLSEWNGDMLEHHHHHH”, the “soluble on expression in E. coli” value was “soluble”.

“MGSDKIHHHHHHMTDAPGPLEPLGSTGGPILDRPAFERLTTTHRRALKLHCYRMMGSLHEADDLVQETFLKAWRGRAQFDGRGSPRGWLYTIATNACLNAIKARSSAHRILEEPARPPSEGRAAAGLAAELSWLEPYPDAELPDLIDGEPGPDARYETSEAVRLAFVAAIQLLPPRQRASLLLCDVLGWSALETAQLLGGSTASVNSALQRARATLGERYPQGRPQQRSQPNPEEGVLLERYISAWQAANLDGFIALLREDATYHMPPWRDWYRGRPAIHGFFKTVWGNFAGYRAVATRANGQPAVAIYARRHQEPEWRAQSLHVIEPAYGAIASLTVYVAPLGPGLFAAFGLPPVWSGPQA”: the “soluble on expression in E. coli” value was “not soluble”.

With “SLQETTAQEQKVGNYALGPEGLKKALAETGSHILVMDLYAKTMIKQPNVNLSNINLGSEGGELLKNIHLNQELSRINANYWLDTAKPQIQKTARNIVNYDEQFQNYYDTLVETVQKKDKAGLKEGINDLITTINTNSKEVTDVIKMLQDFKGKLYQNSTDFKNNVGGPDGKGGLTAILAGQQATIPQLQAEIEQLRATQKKHFDDVLAWSIG”, the “soluble on expression in E. coli” value was “soluble”.

For the sequence “VILIIVAYLVGILIRKRNDSRIAQLEERKQKLFDLPINEEIEEVKNLHLIGQSQTTFREWNQKWIDISTNSFADIENHIFEAENMNDNFHFFKASAEINNIESQLDLVEEDIKSIREALSRLKEQEEKNSARVKHALDLYEELQNSIEGNSDNFGSTLDEITKQLKNIESEFAEFVTLNSSGDPVEASSILDRAEEHTIALGQITEKIPAIVAKLEDDFPDQLDDLESGYRKLIEQNYHFPEKNIERHFQEIREAIRSNSSELVSLDLDRAEEKNADIQEKIDNLYSIFEREIASYKVVMRQKKILPDYLKHAKENNKKLQEELERLMLTYIFDETYEADVRSFTSDISSVETAVLPTLENFDNQVKPFSELEKIFEKSLNTLSAVENGQVEVFENLRAIEKNEAKARDELDVYIDKLHVIKRYMEKRNLPGIPESFLSVFFSTSAQIEALMDELSRGRINIDAVMRLTKTSKNAIEHLEETAYLVVQNATLTEQLLQYSNRYRSFEPAVQSSFEHALKLFEVDHDYDASLEEISYALETVEPGVTDRFVSSYEK”, the “soluble on expression in E. coli” value is listed as “not soluble”.

“MHECKTVTLRTRPLKGRMMSFYLDYYPGYRDKETMKVIRHESLGIYIYANPRNKREQNFNEVMTEKAEAIRCRRFESVVNERYDFFDKYKLKADFLEYYRKQLRKHDQKWEFVYLHFNNFVHGKCTFEEIDIDLCNKFREYLLSAKKLRRNGRITRNSASGYWSTFRGFLKILYRNGMIKTNVNDFLEKIETEDVMKEALSVEELYKLAETPCKKPILKTASLFSCMTSLRISDILSLCWEDIVDYSAGGKCVHIITQKNKAEDIIPISEEALGLIGYSSEKKGLVFKGLMRSWTQIPMKEWI”: the “soluble on expression in E. coli” value was “not soluble”.

Turning to “MRSQRVFTTIDTHTGGNPTRTLISGLPKLIGETMAEKMLHMKKEYDWIRKLLMNEPRGHDVMSGALLTDPCHPEADIGVIYIETGGYLPMCGHDTIGVCTALVESGLIPVVEPITSLKLDTPAGLVEVDIAVQDGKAKEVSFCNIPAFLLKNITVQVKDIGTIEADIAYGGNFYAIIDAKSVGLELIPENASTIIDKAIHIRNTINEKFEIIHPEYSFIRGLTHVEFYTDATHECAHVKNTVIVPPGGIDRSPCGTGTSAKLAVLYAQKEIKIGEEFIHESIVGSLFKGYVVNTTHVENIEAVITKITGSAWLMGMHKFFYNEMDPLKEGFLLIPPMEHETEDIKMAGDPNSLEHHHHHH”, the “soluble on expression in E. coli” value is on record as “soluble”.

Turning to “MTIYVVTPTYARLVQKAELVRLSQTLSLVPRLHWLLVEDAEGPTPLVSGLLAASGLLFTHLVVLTPKAQRLREGEPGWVHPRGVEQRNKALDWLRGRGGAVGGEKDPPPPGTQGVVYFADDDNTYSRELFEEMRWTRGVSVWPVGLVGGLRFEGPQVQDGRVVGFHTAWEPSRPFPVDMAGFAVALPLLLDKPNAQFDSTAPRGHLESSLLSHLVDPKDLEPRAANCTRVLVWHTRTEKPKMKQEEQLQRQGRGSDPAIEV”, the “soluble on expression in E. coli” value is “soluble”.

For the sequence “MGSDKIHHHHHHMTRVLKVDPLFPDEKVLKEAAELLRNGEVIIFPTETVYGIGADAYNEEACKKIFKLKERPADNPLIVHIHSFKQLEEIAEGYEPHLDFLKKFWPGPLTVIFRKKSEKIPPVVTADLPTVAVRMPAHPVALKLIELFGHPIAAPSANISGRPSATNVKHVIEDFMGKVKLIIDAGDTPFGLESTIVDLTKEKPVLLRPGPVEVERLKELFPELVVPDFVRKGNFKGRPLAPGMKYRHYAPLKPLILVEDLTKMEEVLKKYPDHVVICVEERKELYDDRIVVGSLKNPYSIAQNIFSALREAEKMGKEYIIVEGFEERGILFAVMNRLRKAATEIVR”, the “soluble on expression in E. coli” value was “not soluble”.

Turning to “MFEFEQLPNEMQLEVLKRTEFRTIQSMKTVSKRVQHFIQLYQRYMLPIPIRQMFVTPEKISFTLANSNEINTINHDDMDKYLRGAKVDLLWLEMNGSEDEPIEFLQKVIQKTNFTRIDCLKLGSSKVECDVTKLENCMASLVCAELIVDWRFRVPEDFFNELHVEKLTRLTIGNQESRNFYHPLSGDHFRKFRGDWLEIGQNRLRSSDISTFLKNWKLGSISWIEMYNIVISFPIPELLILLKNESCQKTPTTWKVSRDLDEGKEELEIGFFKSTNFSKQPSLVIRQLKILEYLW”, the “soluble on expression in E. coli” value is “not soluble”.

Take “MPREFKSFGSTEKSLLSKGHGEPSYSEIYAEPENFLEIEVHNPKTHIPNGMDSKGMFTDYEIICRTNLPSFHKRVSKVRRRYSDFEFFRKCLIKEISMLNHPKVMVPHLPGKILLSNRFSNEVIEERRQGLNTWMQSVAGHPLLQSGSKVLVRFIEAEKFVG”: the “soluble on expression in E. coli” value was “soluble”.

For the sequence “MNRGSLYITATPIGNREDITLRAIDTLRSVDLIAAEDTRHSKKLLEHYGIKTPLLSLHEHNEAARATLLCEKLKQGLNVALISDAGTPLISDPGYRLVNAVREAGIEVVPIPGACAAIAALVASGLPTDRFIFEGFIPSKGEVRRKKLEDLKNQRRTIIFYESVHRIVNLIDLLNEIFGTERRATIARELTKKFETIHTATLAELKNWINENPVQEKGEFVVIVAGQTEKLTEINEEHQQLLTLLLSELSLKQAVSLATKISGLPRKKLYALALTIQQHLPHHRY”, the “soluble on expression in E. coli” value is “soluble”.

Regarding “MSLSHVFEALSTETLPVRLGGNAAMKEKVGSDSSRWAIREVGDGNLNLVFIVTGEAGAVIVKQALPYVRLVGESWPLPLKRSFFEYHALKRQGARDPGMVPEILFFDEAQAIIVMEFLTPHIILRRALIDGRELPKIGRDLGLFVARTLFRGSDLSMVTREKKADVALFSDNVELCDITENLVFSDPYFEAKLNHHTTPQLDPIVAELRADRELKVEAQRLKHLFSAKAETLCHGDLHTGSVMVTDDETRVIDPEFAFYGPISFDVGMLIANFWMSYFSQAGHETAPGARDSMRAYLLDTIDTLWETFRAEFAALWRTERKGILYQASLFEDRQDPLAAEQALNIVIDEIWHEMLGFAGIETHRRILGLAHNADFETITDPDRRASCESKALKFGRHLAVNRQRIHSLRDIRETVERLEKEILAEGHHHHHH”, the “soluble on expression in E. coli” value was “soluble”.

For “MGSDKIHHHHHHMSANTQSMIFTVYGDYIRHYGNQIWVGSLIRLLKEFGHNEQAVRVAVSRMVKQGWLTSQKQGTKSFYSLTPRGVERMEEAARRIYKSTPHVWDGKWRTLMYTIPEDKRQIRDELRKELSWSGFGNLSNGVWISPNPLEKEAERLIEAYDIKAYIDFFVGEYHGPQQDQSLVERAFPLDELQERYEQFIAEYSRRYIVHQSRIQLGEMDEEQCFVERTTLVHEYRKFLFTDPGLPQELLPDEWSGHHAALLFEQYYRLLAEPASRFFESIFRETHDVTQKSADYDASEHPLFAER”, the “soluble on expression in E. coli” value was “not soluble”.

With “MGSDKIHHHHHHTEDKDWSGGLKNSDLVFQTYLPTEGAKGTELSIRGNNFGEDISQVQVWVNEKEAEVISVTSTRIMARVAEASGSGVVKVRVGEVVYSYPDLFSYGYIRNVYTVAGNGQGTTVDGAYLQASVQWPIVMVYDKWDDAILFLQDEGEHRIRRMKDGKIETLCSTKSLVNNARSICFSLDGDTLFIGNDNANNYVANPVAVGMVTRKGGFKDLKSYIPSEKLAQPHINGIAVNPVDGSLFTYHWGRHVFRYNKATETCEYVITRDQFNELVVGLFPDADGNMQNIGGDGGYGGLAFSPDGKTLYWNGRDPYQGILKADYDLVTKKCTNLTRFAGNGVWGIIDGQGVSSRMDQPNQIAVDAEGNLLVTTVYGRTVRKITPEGYVSTYAGIGYQTGYVDGLAAEAKFNKPYGIAIDAQGNVYVGDCENWRIRVIKEE”, the “soluble on expression in E. coli” value is “not soluble”.

With “MKFKKLFSRLLLATGIMFAGTFTYQNIEHTHVSKAASYNYYTKGQCTWWAYQRRAQLGKPVSNRWGNAKNWYYNAKRSGYRTGHTPKRYAVMQSTAGYYGHVAVVERVYSNGSIKVSEYNYNRPSAYGTRYLSKWSARNYNYIYLEHHHHHH”, the “soluble on expression in E. coli” value is “not soluble”.

On to “MPPMRSKATQWLLSVWGLMDPLYYACSRLEYVGGKENGCRSIFRVRLLRYKGETIHLSDGTTIAANDWLLKIHLHNVRLLCELMQYRSDIQKGRYIFEQVKAGLPHVAHHLYHHEQSSSIKGIIGVTMLNKGCERLGFDVIDIANSFYRWFKMASHWPMMTVAQHRLVPLVRPPKYLVMSKEKLFSLYGCHLIH”, for which the “soluble on expression in E. coli” value is “not soluble”.

For “MSASLRQSELTIRACILYEALGKNPIQLSYYNFCTRVGNGVMGFSDFEFWYDRFSNGNHDLDYDRSVNQVPKSLPEMPKSEKTEISEIGTQVDIVELLNLMKVSQSVAQKRKVVLDSLVVQFYEGESCSRLIFNDRYIIKYEKKDQGCTVSYSDNRASSDSRKKEINVTDEDYVELCIKDLKLLMENRMVHLKTFRFAIIAVATKEFREKCMKRVEEALKTAKSLTSRTVETTGGYLLELAQLMAIFPAKNVEEIRFTGDGTIGSEQLVSLEQWKNARKFDGMRDLNVPIEHFLHFETFIVYLSVFTEDDAVKLRDMIDRSAHFCYARLHFKSMNIRTLMGVFDVYNTEHNIVYQTPDQRYFNVRFYSNELQITKSAILNFQIE”, the “soluble on expression in E. coli” value is given as “not soluble”.

Take “MGSDKIHHHHHHMKSYVLTVSCKSTRGIVAAITGYLAEKGCYISDSSQFDDFQTGLFFMRLTFISQDGAKLEELREGFEPVIKRFEMMMEIRDSEERMKVLLMVSRFGHCLNDLLYRWKIGALPIDIVGVVSNHFDYQKVVVNHDIPFHHIKVTKENKPKAEAQLMDVVEQTGAELIVLARYMQVLSDALCKKMSGKIINIHHSFLPSFKGANPYKQAYERGVKLIGATAHYVTADLDEGPIIEQDIARITHAQSAEDYVSIGRDVESQVLARAVHAHIHHRCFINGNRVVVFPPSPGSYASERMG”: the “soluble on expression in E. coli” value is listed as “not soluble”.

The record behind these values is the DeepSol protein solubility set.
